{"source": "patent US20130288983A1", "about": "(Amgen, published 2013)", "binders": {"B1": {"name": "ActRIIB-IgG1 Fc R40Q, linker GGGGS (Fc fusion)", "chain": "SGRGEAETRECIYYNANWELEQTNQSGLERCEGEQDKRLHCYASWRNSSGTIELVKKGCWLDDFNCYDRQECVATEENPQVYFCCCEGNFCNERFTHLPEAGGPEVTYEPPPTAPTGGGGSAPELLGGPSVFLFPPKPKDILMISRTPEVTCVVVDVSHEDPEVKFNWYVGGVEVHNAKTKPREEQYNSTYRVVSVLTVLHQDWLNGKEYKCKVSNKALPAPIEKTISKAKGQPREPQVYTLPPSRDELTKNQVSLTCLVKGFYPSDIAVEWESNGQPENNYKTTPPVLDSDGSFFLYSKLTVDKSRWQQGNVFSCSVMHEALHNHYTQKSLSLSPGK", "notes": "Tested from conditioned media"}, "B2": {"name": "ActRIIB-IgG1 Fc R40N, linker GGGGS (Fc fusion)", "chain": "SGRGEAETRECIYYNANWELENTNQSGLERCEGEQDKRLHCYASWRNSSGTIELVKKGCWLDDFNCYDRQECVATEENPQVYFCCCEGNFCNERFTHLPEAGGPEVTYEPPPTAPTGGGGSAPELLGGPSVFLFPPKPKDILMISRTPEVTCVVVDVSHEDPEVKFNWYVGGVEVHNAKTKPREEQYNSTYRVVSVLTVLHQDWLNGKEYKCKVSNKALPAPIEKTISKAKGQPREPQVYTLPPSRDELTKNQVSLTCLVKGFYPSDIAVEWESNGQPENNYKTTPPVLDSDGSFFLYSKLTVDKSRWQQGNVFSCSVMHEALHNHYTQKSLSLSPGK", "notes": "Tested from conditioned media"}, "B3": {"name": "ActRIIB-IgG1 Fc E28C, linker GGGGS (Fc fusion)", "chain": "SGRGEAETRCCIYYNANWELERTNQSGLERCEGEQDKRLHCYASWRNSSGTIELVKKGCWLDDFNCYDRQECVATEENPQVYFCCCEGNFCNERFTHLPEAGGPEVTYEPPPTAPTGGGGSAPELLGGPSVFLFPPKPKDILMISRTPEVTCVVVDVSHEDPEVKFNWYVGGVEVHNAKTKPREEQYNSTYRVVSVLTVLHQDWLNGKEYKCKVSNKALPAPIEKTISKAKGQPREPQVYTLPPSRDELTKNQVSLTCLVKGFYPSDIAVEWESNGQPENNYKTTPPVLDSDGSFFLYSKLTVDKSRWQQGNVFSCSVMHEALHNHYTQKSLSLSPGK", "notes": "Tested from conditioned media"}, "B4": {"name": "ActRIIB-IgG1 Fc E28S, linker GGGGS (Fc fusion)", "chain": "SGRGEAETRSCIYYNANWELERTNQSGLERCEGEQDKRLHCYASWRNSSGTIELVKKGCWLDDFNCYDRQECVATEENPQVYFCCCEGNFCNERFTHLPEAGGPEVTYEPPPTAPTGGGGSAPELLGGPSVFLFPPKPKDILMISRTPEVTCVVVDVSHEDPEVKFNWYVGGVEVHNAKTKPREEQYNSTYRVVSVLTVLHQDWLNGKEYKCKVSNKALPAPIEKTISKAKGQPREPQVYTLPPSRDELTKNQVSLTCLVKGFYPSDIAVEWESNGQPENNYKTTPPVLDSDGSFFLYSKLTVDKSRWQQGNVFSCSVMHEALHNHYTQKSLSLSPGK", "notes": "Tested from conditioned media"}, "B5": {"name": "ActRIIB-IgG1 Fc R40I, linker GGGGS (Fc fusion)", "chain": "SGRGEAETRECIYYNANWELEITNQSGLERCEGEQDKRLHCYASWRNSSGTIELVKKGCWLDDFNCYDRQECVATEENPQVYFCCCEGNFCNERFTHLPEAGGPEVTYEPPPTAPTGGGGSAPELLGGPSVFLFPPKPKDILMISRTPEVTCVVVDVSHEDPEVKFNWYVGGVEVHNAKTKPREEQYNSTYRVVSVLTVLHQDWLNGKEYKCKVSNKALPAPIEKTISKAKGQPREPQVYTLPPSRDELTKNQVSLTCLVKGFYPSDIAVEWESNGQPENNYKTTPPVLDSDGSFFLYSKLTVDKSRWQQGNVFSCSVMHEALHNHYTQKSLSLSPGK", "notes": "Tested from conditioned media"}, "B6": {"name": "ActRIIB-IgG1 Fc E28D, linker GGGGS (Fc fusion)", "chain": "SGRGEAETRDCIYYNANWELERTNQSGLERCEGEQDKRLHCYASWRNSSGTIELVKKGCWLDDFNCYDRQECVATEENPQVYFCCCEGNFCNERFTHLPEAGGPEVTYEPPPTAPTGGGGSAPELLGGPSVFLFPPKPKDILMISRTPEVTCVVVDVSHEDPEVKFNWYVGGVEVHNAKTKPREEQYNSTYRVVSVLTVLHQDWLNGKEYKCKVSNKALPAPIEKTISKAKGQPREPQVYTLPPSRDELTKNQVSLTCLVKGFYPSDIAVEWESNGQPENNYKTTPPVLDSDGSFFLYSKLTVDKSRWQQGNVFSCSVMHEALHNHYTQKSLSLSPGK", "notes": "Tested from conditioned media"}, "B7": {"name": "ActRIIB-IgG1 Fc E28T, linker GGGGS (Fc fusion)", "chain": "SGRGEAETRTCIYYNANWELERTNQSGLERCEGEQDKRLHCYASWRNSSGTIELVKKGCWLDDFNCYDRQECVATEENPQVYFCCCEGNFCNERFTHLPEAGGPEVTYEPPPTAPTGGGGSAPELLGGPSVFLFPPKPKDILMISRTPEVTCVVVDVSHEDPEVKFNWYVGGVEVHNAKTKPREEQYNSTYRVVSVLTVLHQDWLNGKEYKCKVSNKALPAPIEKTISKAKGQPREPQVYTLPPSRDELTKNQVSLTCLVKGFYPSDIAVEWESNGQPENNYKTTPPVLDSDGSFFLYSKLTVDKSRWQQGNVFSCSVMHEALHNHYTQKSLSLSPGK", "notes": "Tested from conditioned media"}, "B8": {"name": "ActRIIB-IgG1 Fc R40L, linker GGGGS (Fc fusion)", "chain": "SGRGEAETRECIYYNANWELELTNQSGLERCEGEQDKRLHCYASWRNSSGTIELVKKGCWLDDFNCYDRQECVATEENPQVYFCCCEGNFCNERFTHLPEAGGPEVTYEPPPTAPTGGGGSAPELLGGPSVFLFPPKPKDILMISRTPEVTCVVVDVSHEDPEVKFNWYVGGVEVHNAKTKPREEQYNSTYRVVSVLTVLHQDWLNGKEYKCKVSNKALPAPIEKTISKAKGQPREPQVYTLPPSRDELTKNQVSLTCLVKGFYPSDIAVEWESNGQPENNYKTTPPVLDSDGSFFLYSKLTVDKSRWQQGNVFSCSVMHEALHNHYTQKSLSLSPGK", "notes": "Tested from conditioned media"}, "B9": {"name": "ActRIIB-IgG1 Fc R40C, linker GGGGS (Fc fusion)", "chain": "SGRGEAETRECIYYNANWELECTNQSGLERCEGEQDKRLHCYASWRNSSGTIELVKKGCWLDDFNCYDRQECVATEENPQVYFCCCEGNFCNERFTHLPEAGGPEVTYEPPPTAPTGGGGSAPELLGGPSVFLFPPKPKDILMISRTPEVTCVVVDVSHEDPEVKFNWYVGGVEVHNAKTKPREEQYNSTYRVVSVLTVLHQDWLNGKEYKCKVSNKALPAPIEKTISKAKGQPREPQVYTLPPSRDELTKNQVSLTCLVKGFYPSDIAVEWESNGQPENNYKTTPPVLDSDGSFFLYSKLTVDKSRWQQGNVFSCSVMHEALHNHYTQKSLSLSPGK", "notes": "Tested from conditioned media"}, "B10": {"name": "ActRIIB-IgG1 Fc E28P, linker GGGGS (Fc fusion)", "chain": "SGRGEAETRPCIYYNANWELERTNQSGLERCEGEQDKRLHCYASWRNSSGTIELVKKGCWLDDFNCYDRQECVATEENPQVYFCCCEGNFCNERFTHLPEAGGPEVTYEPPPTAPTGGGGSAPELLGGPSVFLFPPKPKDILMISRTPEVTCVVVDVSHEDPEVKFNWYVGGVEVHNAKTKPREEQYNSTYRVVSVLTVLHQDWLNGKEYKCKVSNKALPAPIEKTISKAKGQPREPQVYTLPPSRDELTKNQVSLTCLVKGFYPSDIAVEWESNGQPENNYKTTPPVLDSDGSFFLYSKLTVDKSRWQQGNVFSCSVMHEALHNHYTQKSLSLSPGK", "notes": "Tested from conditioned media"}, "B11": {"name": "ActRIIB-IgG1 Fc E28R, linker GGGGS (Fc fusion)", "chain": "SGRGEAETRRCIYYNANWELERTNQSGLERCEGEQDKRLHCYASWRNSSGTIELVKKGCWLDDFNCYDRQECVATEENPQVYFCCCEGNFCNERFTHLPEAGGPEVTYEPPPTAPTGGGGSAPELLGGPSVFLFPPKPKDILMISRTPEVTCVVVDVSHEDPEVKFNWYVGGVEVHNAKTKPREEQYNSTYRVVSVLTVLHQDWLNGKEYKCKVSNKALPAPIEKTISKAKGQPREPQVYTLPPSRDELTKNQVSLTCLVKGFYPSDIAVEWESNGQPENNYKTTPPVLDSDGSFFLYSKLTVDKSRWQQGNVFSCSVMHEALHNHYTQKSLSLSPGK", "notes": "Tested from conditioned media"}, "B12": {"name": "ActRIIB-IgG1 Fc E28G, linker GGGGS (Fc fusion)", "chain": "SGRGEAETRGCIYYNANWELERTNQSGLERCEGEQDKRLHCYASWRNSSGTIELVKKGCWLDDFNCYDRQECVATEENPQVYFCCCEGNFCNERFTHLPEAGGPEVTYEPPPTAPTGGGGSAPELLGGPSVFLFPPKPKDILMISRTPEVTCVVVDVSHEDPEVKFNWYVGGVEVHNAKTKPREEQYNSTYRVVSVLTVLHQDWLNGKEYKCKVSNKALPAPIEKTISKAKGQPREPQVYTLPPSRDELTKNQVSLTCLVKGFYPSDIAVEWESNGQPENNYKTTPPVLDSDGSFFLYSKLTVDKSRWQQGNVFSCSVMHEALHNHYTQKSLSLSPGK", "notes": "Tested from conditioned media"}, "B13": {"name": "ActRIIB-IgG1 Fc R40F, linker GGGGS (Fc fusion)", "chain": "SGRGEAETRECIYYNANWELEFTNQSGLERCEGEQDKRLHCYASWRNSSGTIELVKKGCWLDDFNCYDRQECVATEENPQVYFCCCEGNFCNERFTHLPEAGGPEVTYEPPPTAPTGGGGSAPELLGGPSVFLFPPKPKDILMISRTPEVTCVVVDVSHEDPEVKFNWYVGGVEVHNAKTKPREEQYNSTYRVVSVLTVLHQDWLNGKEYKCKVSNKALPAPIEKTISKAKGQPREPQVYTLPPSRDELTKNQVSLTCLVKGFYPSDIAVEWESNGQPENNYKTTPPVLDSDGSFFLYSKLTVDKSRWQQGNVFSCSVMHEALHNHYTQKSLSLSPGK", "notes": "Tested from conditioned media"}, "B14": {"name": "ActRIIB-IgG1 Fc E28N, linker GGGGS (Fc fusion)", "chain": "SGRGEAETRNCIYYNANWELERTNQSGLERCEGEQDKRLHCYASWRNSSGTIELVKKGCWLDDFNCYDRQECVATEENPQVYFCCCEGNFCNERFTHLPEAGGPEVTYEPPPTAPTGGGGSAPELLGGPSVFLFPPKPKDILMISRTPEVTCVVVDVSHEDPEVKFNWYVGGVEVHNAKTKPREEQYNSTYRVVSVLTVLHQDWLNGKEYKCKVSNKALPAPIEKTISKAKGQPREPQVYTLPPSRDELTKNQVSLTCLVKGFYPSDIAVEWESNGQPENNYKTTPPVLDSDGSFFLYSKLTVDKSRWQQGNVFSCSVMHEALHNHYTQKSLSLSPGK", "notes": "Tested from conditioned media"}}}
{"target": "T1, Activin A (Homo sapiens (Human), UniProt P08476 311-426)", "T1 sequence": "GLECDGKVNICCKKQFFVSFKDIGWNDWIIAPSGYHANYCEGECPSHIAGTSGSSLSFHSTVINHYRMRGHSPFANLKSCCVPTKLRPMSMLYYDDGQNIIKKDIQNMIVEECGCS", "experiment": "Biacore SPR grade, COS transient conditioned media, 20 nM activin A", "description": "(§1) Qualitative BIAcore® Assay. E28 and R40 were substituted respectively with other natural amino acids in fusions with IgG1 Fc as described above. Each vActRIIB-IgG1Fc sample from conditioned media was captured on goat anti-human IgG1 Fc antibody (Jackson Immuno Research, cat#109-005-098, lot 63550) coated CMS surface. 20 nM of Activin A was injected over captured sample surfaces using BIACore2000 (BIACore Life Sciences, Piscataway, N.J.). The resulting sensorgrams were normalized to the captured RL (500 RU) of vActRIIB-IgG1Fc variants. The normalized binding response (RU) for some variants are shown in Table 2, and is further described below. Relative binding affinity for activin was also determined by Biacore measurements using conditioned media obtained from mammalian cell expression. Activin A (20 nM) was used to capture soluble receptor polypeptide in the conditioned media and measured SPR signals were normalized. Normalized SPR of +++++: >60, ++++:40-60, +++:20-40, ++:10-20, +: 5-10, −: <5.", "units": {"normalized SPR signal": "ru"}}
{"binder": "B1", "normalized SPR signal": "5 to 10"}
{"binder": "B2", "normalized SPR signal": "10 to 20"}
{"target": "T1, Activin A", "experiment": "Biacore SPR grade, COS transient conditioned media", "description": "as §1", "units": {"normalized SPR signal": "ru"}}
{"binder": "B3", "normalized SPR signal": "< 5"}
{"binder": "B4", "normalized SPR signal": "< 5"}
{"binder": "B5", "normalized SPR signal": "< 5"}
{"binder": "B6", "normalized SPR signal": "< 5"}
{"binder": "B7", "normalized SPR signal": "< 5"}
{"binder": "B8", "normalized SPR signal": "< 5"}
{"binder": "B9", "normalized SPR signal": "< 5"}
{"binder": "B10", "normalized SPR signal": "< 5"}
{"binder": "B11", "normalized SPR signal": "< 5"}
{"binder": "B12", "normalized SPR signal": "< 5"}
{"binder": "B13", "normalized SPR signal": "< 5"}
{"binder": "B14", "normalized SPR signal": "< 5"}
